Test results reported in paper PMC8322156, “Nuclear condensates of p300 formed though the structured catalytic core can act as a storage pool of p300 with reduced HAT activity” (Nature Communications, 2021).
Values belong to the molecule of their own block, whether it stands above or below them. No end group written: not given here.

Assays:
[1] = tested on: p300 BRPHZ, SIRT2-deacetylated (~4 Kac, outside the AIL) (human); test: EMSA; details: EMSA: 20 mM Tris-HCl pH 7.5, 50 mM NaCl (75 mM for NCP), 2 mM DTT, 5 min; 5% PAGE in 0.2x TBE (DNA) or 0.2x TB (NCP), 100 V, on ice; SYBR Gold
[2] = biological target: T1, SIRT2-treated p300_(BRPHZ) (catalytic core BD-RING-PHD-HAT-ZZ, aa 1035-1720 of p300), hypoacetylated (human, UniProt Q09472 1035-1720, on average 4 acetyl-lysines outside the AIL left after SIRT2 treatment (sites not given)); test: recruitment of a labelled peptide into condensates (confocal microscopy); 13 uM SIRT2-treated p300 condensates (PEG-induced) mixed with 6 uM FAM-labeled H3 tail (aa 1-12); FAM alone as control; details: both partners purified
T1 construct: human p300, BD-RING-PHD-HAT-ZZ region (BRPHZ), amino acids 1035-1720; Heterogeneously acetylated; Vector pGEX-6P-1; also called SIRT2-deacetylated p300BRPHZ; deacetylated p300
T1 sequence (looked up): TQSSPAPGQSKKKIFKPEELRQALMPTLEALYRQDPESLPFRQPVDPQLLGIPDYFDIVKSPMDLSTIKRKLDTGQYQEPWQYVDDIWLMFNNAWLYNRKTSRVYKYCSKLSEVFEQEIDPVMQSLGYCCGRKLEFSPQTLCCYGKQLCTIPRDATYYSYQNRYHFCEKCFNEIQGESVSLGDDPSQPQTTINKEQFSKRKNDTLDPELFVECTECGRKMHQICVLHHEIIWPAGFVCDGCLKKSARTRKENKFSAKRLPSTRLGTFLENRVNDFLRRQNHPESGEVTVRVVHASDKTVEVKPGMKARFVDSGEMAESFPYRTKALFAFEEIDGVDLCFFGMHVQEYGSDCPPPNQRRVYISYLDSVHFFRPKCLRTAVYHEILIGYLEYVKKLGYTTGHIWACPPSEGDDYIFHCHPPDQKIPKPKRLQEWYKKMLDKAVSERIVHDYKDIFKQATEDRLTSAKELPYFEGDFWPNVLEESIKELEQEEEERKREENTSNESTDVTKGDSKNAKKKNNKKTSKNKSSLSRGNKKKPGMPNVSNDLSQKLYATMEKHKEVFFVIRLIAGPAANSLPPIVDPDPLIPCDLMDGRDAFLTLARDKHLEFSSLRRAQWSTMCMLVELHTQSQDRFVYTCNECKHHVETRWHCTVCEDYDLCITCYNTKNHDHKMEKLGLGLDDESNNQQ

Molecule: 601 DNA 147 bp
Kd [1]: 300 nM

binding result [2]: binds
B1: fluorescein (FAM)-labeled histone H3 tail peptide (residues 1-12 of H3) (peptide, UniProt P68431 2-13, looked up)
peptide: ARTKQTARKSTG
modifications: also: fluorescein (FAM) label, position not given here
notes: histone H3 tail, residues 1-12, unmodified; also called FAM-H3; FAM-labeled H3_(1-12) peptide
